Source: the domain aggregation screens of Martell et al. (2025)

Assay: soluble fraction after stress (log2 fold change); higher = more stays soluble; pooled small domains, quantitative proteomics
Conditions: stress: pH 4
In short: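 Custom libraries of small protein domains were pooled and measured with high-throughput quantitative proteomics after pH 4 stress. The read-out is the fold change in the amount of each domain that stays soluble after the acid stress, taken as a measure of aggregation propensity. Fold changes are on a log2 scale, and higher values mean more of the domain stayed soluble.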

Sequence | soluble fraction (log2)
HMGKGGVAYLLESEFGIELPKDMQREFGPIANDIVDSLGREVSGAELKSMFWKEYIERETPFLLLLVTGQL | -0.762
HMESSREVSFSEFMKQIDSGRVSSVKLDGETIYVRNSDGTSYKVIQPLGTDLIGVLRKSDIDVQAIKQ | 0.165
HMKTELAYDFHSRIRDARIREGLSQVDLAKRMNEKIAVIQKAENGIRPTDSLIAKFSKALSVELYVE | -0.604
HMDFRQALNTSADSDANKVALLESIVKGKYVSSTVNLLRRVITLRRGRSIDATLAAYSHYVSIR | 0.385
HMEDVSTLAVKQRIDDLVKQENPAKPLSDSDIVARLKTDGIYIARRTVAKYRMELNIPSSSARKRAQQFS | 0.266
HMKADTSPEAQKKIIAAFEPYSVNKDQIEKLIQRRIDSITPAQVIRLRKILASLKDGMSSPEDWFE | 0.076
HMSLIDLLQLNRKSKKLTLMNLVEMTGLSYGKVYRIFNGGIDKPTPDSLKLLAKALQLDYSYLFHKAGYL | 0.266
HMRREKVLIKLAENLASKVLRTKKSIELEPMTPYERKVIHTTIENISGVKSWSEGENLQRHLIVALDE | 0.188
HMGFAANLSRLMEYHNISMYRLAKEVGVHQTTVKNWLEEESEPKIAALEKIVGLLGVSYDELLG | -1.72
HMDKEVLYVTVNDKKVKLDGKNHIFIDIFNYIDFDIKKPNGSIVLKLNGKNAGYMDEIKDGDKIEIYWDK | -0.277
HMALKSGVIAHAVDDAVMRGLNVFTVSDDGSIVSMKDNDIVLGKDGKSPYSVSEWLEELKPNVPHWFG | -0.256
HMKRQDFEFLVNLLRQNAGWDFDEEQYFVVDKKISNFIREKGYASVEDLIDELKVGAKPLISQVVESLAL | -2.01
HMQQPIPGEAYLTRRPGSDHFQIAFTIDGHRVRESSGTSDKVAAAALAQKRYEEVWREIKLGEK | -0.0232
HMIVVMAADSSREDLDLVQGRIEARGLRAQISQGVERIVIGVLGSLPPDLKDEMELLPGVREVLVIS | -1.19
HMKEFIPPVLDDVLKFFSGSLLPDWENQGRLFFSHYNSQGWRKGTGVQVTDWDSLANKWILDEKIKRDARS | -0.214
HMVLAEPLSERELDILRLLAAGDSNKEIAAVLYITEGTVKNHVTNILGKLDARDRTQAALRARELGL | -0.373
HMGKVNGFEITVIEGKNVVGSITPRQAIAKNSDGVIQLRGEQSFSATDQVLINELAFYIKSNNLKA | -1.23
HMGNNKLVLSLAVALKNTPNFLKNYNYKISKDKKFIEILLSKQINEVSDIIINLKKNNINIVDLNIKKR | -0.0131
HMITPAGVPPALLPVFDQFTLPDGTLRRGAVAAALRALYGPDAPQSGKRYQMEYDRVMAWHSQYFTSLH | -0.42
HMELDREALSDGLRRLSQLLAEDDIESRTLFRELAPGLKEQLGDDAVEKLAGHISRYEFEQAGALLATSG | -0.61
HMDRERFIKLGREIARAAFENVGKKATDKVLNSAAKKLRLEDGDEVLARLGSAEIEARSVVQAVYPDLI | 0.336
HMAVLEGPAGKLGIVRFEANRSFTGMGHERFSSADQAFGTKPAAVVASRLFATGQVAGVHVYGNIITVELA | ≥ 0.43
HMKYFDRDLINYIQKTLAGKKIDFHEKIVPLIIELAGSDIRRVDEIIDMAEYSGKGMHVSEEMIRELAGDV | -1.72
HMDYQEVEFEKLGKEILTKILLDINKKATKKTLKILIDGFNYDSYRSFYIAIGKAQISSDSILELLQH | -0.524
HMKAERLLALLTILLSGKRVSARWLSEELEVSERTVYRDVEALSEAGFPVYATTGRDGGFSLIDGF | -1.18
HMATAATGIINNNYVNVRSGPATTYNIVGRLDQGSSIEILGSKNDWYQIKTKQLNGWVKNDFINLQK | 0.14
HMSYTDIILKMSNVNFLTKVNFTNSEKNKNIKNGNFLIKKGKNRITAAFDYKDNELVISKSNLRNTFL | -1.22
HMTKYREVLRMSAGGFSQRVIASTLSISRNTVASTLKRAREQNLDWEAVEQQRLSEKDIANLLFP | 0.293

Sequence | soluble fraction (log2)
HMAIPEVDPAKQGVSATQLAALDALAHRNAGEGRVAGMVNVVIRNGEIVYYKATGPRHIDGGAPLKSTDLF | 0.0394
HMSGVSESIEKKIQYLLLEKPLPLHDLIEAIEIGKEEDRLKVLRSLMDSDTVKIEDDLYHWNA | -0.393
HMTGSLLVEVQGRPDADRLLGQALVDAGLTARPAGGALIEVEVRDETTPDVVRDLTVDLGLGLVRMQERH | -1.01
HMRTGSSVLVGLVAPVRLGATGAPKVFADGALWEARSAVPLNDGQLVEITGTDGLTVLVKPSA | 0.138
HMIDIDTILKKYKPGRRDELIPLMQEIQEVYGHLSEEAVVKIGTYVGLSTTKIYGLATFYDQFRF | -0.874
HMQYALEDDLDSAIKLLTGKGLSGTVAWGWSDTYINVGKKSYSMEFIAKMLLRLGEGSRVTIQVDPA | -1.28
HMKVKGVYQLDNGYWGYRFTMLVNGKTVSQRRVKDESGNPFKTEKKAEKARLVAMAEEQTKANK | 0.125
HMIEEIETQFLFDFGLIGHPNSAKIREKLSEALGIGYVNGKQLQKRLMMFGITKQQVVDVLTD | -2.3
HMELPVNSIRVPDVVGLSLREAMQAMTDAGVPWQSVQAKGVGFVSRQSPEAGTVTQLRRVRLELKLF | -0.00108
HMKNELNSKLIISIKEALPPQIKVATYLMDLLSLGREAVYRRIRGDVSFDLEELSIISKALNISIDDVL | -2.53
HMIRDTTMYPVSVNGKKRYEWTVSKSISDDELKQQVLELEEIKKWIEGHEIKKLIFVPGRAINIV | -0.743
HMTITIGNSDGGYMKMGADGFEVRFSGSDGGNHYAKMYYNNDGWARLTLGSYGEEKARIDSDGMIQTR | 0.208
HMQTLQTTSLRVSENQLFILDQQALPQEKRWLAADNVALLVDHIHTLRVRGAPLIGLSASLLLALLAGRLT | -0.764
HMSAPAMTLDSIRSLLNDRDPWVVTQTVEWLVGLGPQVKTILETLTLESSDAARQAQNALDRINVRNYP | -1.08
HMASITLDQAKEIALTHAGQTADAVWFEKAEQDYDDGILVYELEFAAKGTEYEYEIDAQTGAIREYKWDD | 0.0206
HMLAERKERDKAELKELILDAAKKILLKNGQEGLSIRKIATTVEYSPATIYLYFKDKDEILHELMEMG | 0.151
HMDKIEVVEVDMSKPYEDMTVTELQNVILDKLASNGPVTNQMKKDVSENIYHDSLVNWAKSF | -0.541
HMWGAYHDGQVVKFPKKVTVYVIDGQYKRPLANEFVLKFLNYKTSDIIIDKDGNLNNYKNGAVVEH | -0.332
HMEISTENESFSNGLLEHPHYTRPPVWEDLKIPAVLMSGHHGKVAEWRKQQSEALTQERRPDLWEAFG | -0.0776
HMEPTAEQLKAIRQFASVNGRSWKSELRYLWETGAYHRAALGGADPGYLQQVRNQFGPGWLRAFKISK | -0.113
HMLLTDGLERRIDGDKNLHIRISLPMLVKGQIKLAKSGNNESTVKGIFKIESYPGSHPRDVVTEIIEG | -0.0816
HMNETSRTRALNILGLKATATQEDIKKAYRSLAKEYHPDKLVGVSEGVKKISEEKFREINEAYEYLI | -0.00502
HMGKAPREVQVGELLRVPALNAEGEVLRRDGESVELSIQGKKLRLPLAQLEAFSPRRFARRGEGKVRGRIE | 0.266
HMKPDIETQLKKYRYKVSVSKKIKPYMVFSDKTLSELLTKSPTNLKELEDINGFGPVKVQEYGAAILEILK | 0.148
HMEEFGRRLKERMIDKNMTEAELAQKTELWSSILTSYLKGERFPGYYTLLRIAEALDVSIDFLLGLRDEPE | -2.01
HMALKSYEDMVGKTGVAYTVLRPSGKVIINDELFDATARSGMIEKGNEVIIYDYKNAQLIVEK | -0.518
HMLINLGPRIRKERRSKGISQSDFSKNLGISASYLNLLENGRRTLTVPLLIKIGNELNLSLKDL | 0.113
